Experimental data as given in publication PMC9482650, “Quantitative fragmentomics allow affinity mapping of interactomes” (Nature Communications, 2022).

Key:
Assay in all cases: holdup assay
Parameters in all cases: key: below the threshold = too weak to quantify, mostly under pKd 3.1 to 4
DLG4_3, P78352 = target: DLG4_3, P78352
DLG5_1, Q8TDM6 = target: DLG5_1, Q8TDM6
NHERF2_2, Q15599 = target: NHERF2_2, Q15599
MAGI2_5, Q86UL8 = target: MAGI2_5, Q86UL8
FRMPD3, Q5JV73 = target: FRMPD3, Q5JV73
HTRA3, P83110 = target: T1, HTRA3, P83110
T1 sequence (P83110 354-453, limits assumed, looked up): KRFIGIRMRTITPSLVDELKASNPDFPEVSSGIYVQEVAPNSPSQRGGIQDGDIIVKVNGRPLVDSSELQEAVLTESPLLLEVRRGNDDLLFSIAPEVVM

MAGI2_2, Q86UL8 = target: MAGI2_2, Q86UL8
Chain of MAGI2_2, Q86UL8 (Q86UL8 410-522): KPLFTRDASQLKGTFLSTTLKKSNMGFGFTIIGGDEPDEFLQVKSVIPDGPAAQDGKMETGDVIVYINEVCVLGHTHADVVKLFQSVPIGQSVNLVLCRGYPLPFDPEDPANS

ARHGEF12, Q9NZN5-2 = target: ARHGEF12, Q9NZN5-2
Chain of ARHGEF12, Q9NZN5-2 (Q9NZN5 other isoform, or with tags, fused parts or gaps): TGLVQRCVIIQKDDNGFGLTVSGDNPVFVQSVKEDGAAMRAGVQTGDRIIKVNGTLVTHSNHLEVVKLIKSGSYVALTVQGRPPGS

PDZRN3_1, Q9UPQ7 = target: T2, PDZRN3_1, Q9UPQ7
T2 sequence (Q9UPQ7 244-349, limits assumed, looked up): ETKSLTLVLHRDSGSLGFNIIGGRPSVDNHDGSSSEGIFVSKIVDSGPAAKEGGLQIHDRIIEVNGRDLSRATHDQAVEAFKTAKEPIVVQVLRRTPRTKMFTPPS

ARHGEF11, O15085 = target: T3, ARHGEF11, O15085
T3 sequence (O15085 42-136, limits assumed, looked up): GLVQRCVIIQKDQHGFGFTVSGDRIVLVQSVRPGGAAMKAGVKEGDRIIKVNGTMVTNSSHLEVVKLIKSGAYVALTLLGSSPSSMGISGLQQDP

MAGI2_3, Q86UL8 = target: MAGI2_3, Q86UL8
Chain of MAGI2_3, Q86UL8 (Q86UL8 600-682): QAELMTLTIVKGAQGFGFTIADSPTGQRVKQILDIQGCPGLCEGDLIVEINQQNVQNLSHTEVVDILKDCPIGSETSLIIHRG

PTPN13_1, Q12923 = target: T4, PTPN13_1, Q12923
T4 sequence (Q12923 1088-1188, limits assumed, looked up): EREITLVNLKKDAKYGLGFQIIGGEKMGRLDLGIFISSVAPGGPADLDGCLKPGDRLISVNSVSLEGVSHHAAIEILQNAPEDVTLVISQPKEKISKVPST

SHANK1, Q9Y566 = target: T5, SHANK1, Q9Y566
T5 sequence (Q9Y566 658-767, limits assumed, looked up): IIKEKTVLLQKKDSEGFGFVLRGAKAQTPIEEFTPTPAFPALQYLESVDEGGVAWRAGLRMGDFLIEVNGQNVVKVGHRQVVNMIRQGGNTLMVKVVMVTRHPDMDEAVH

SCRIB_3, Q14160 = target: SCRIB_3, Q14160
Chain of SCRIB_3, Q14160 (Q14160 999-1103): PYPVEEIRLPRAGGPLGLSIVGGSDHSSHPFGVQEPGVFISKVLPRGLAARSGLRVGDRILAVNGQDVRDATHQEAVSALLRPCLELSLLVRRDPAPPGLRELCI

APBA1_2, Q02410 = target: T6, APBA1_2, Q02410
T6 sequence (Q02410 742-832, limits assumed, looked up): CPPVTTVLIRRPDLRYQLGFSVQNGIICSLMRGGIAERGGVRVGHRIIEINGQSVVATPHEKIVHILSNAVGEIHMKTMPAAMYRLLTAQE

MAGI1_1, Q96QZ7 = target: MAGI1_1, Q96QZ7
Chain of MAGI1_1, Q96QZ7 (Q96QZ7 1-106): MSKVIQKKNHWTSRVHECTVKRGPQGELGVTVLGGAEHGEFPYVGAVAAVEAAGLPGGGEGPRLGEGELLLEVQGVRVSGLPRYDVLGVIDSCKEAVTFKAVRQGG

Inadl_4, Q8NI35 = target: Inadl_4, Q8NI35
Chain of Inadl_4, Q8NI35 (Q8NI35 547-651): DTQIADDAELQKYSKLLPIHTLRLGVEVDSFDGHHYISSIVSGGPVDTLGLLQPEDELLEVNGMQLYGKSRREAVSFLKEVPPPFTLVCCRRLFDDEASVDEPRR

APBA2_1, Q99767 = target: T7, APBA2_1, Q99767
T7 sequence (Q99767 563-664, limits assumed, looked up): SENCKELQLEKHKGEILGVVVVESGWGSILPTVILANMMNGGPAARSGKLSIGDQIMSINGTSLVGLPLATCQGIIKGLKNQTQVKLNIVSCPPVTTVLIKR

AHNAK1, Q09666 = target: AHNAK1, Q09666
Chain of AHNAK1, Q09666 (Q09666 4-100): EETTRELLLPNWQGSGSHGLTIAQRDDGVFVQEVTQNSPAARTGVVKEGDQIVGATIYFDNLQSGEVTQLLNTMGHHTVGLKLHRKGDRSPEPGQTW

NOS1, P29475 = target: NOS1, P29475
Chain of NOS1, P29475 (P29475 9-101): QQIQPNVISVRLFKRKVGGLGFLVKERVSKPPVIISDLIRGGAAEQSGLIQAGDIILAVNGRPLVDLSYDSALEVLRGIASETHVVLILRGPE

Inadl_9, Q8NI35 = target: Inadl_9, Q8NI35
Chain of Inadl_9, Q8NI35 (Q8NI35 1530-1615): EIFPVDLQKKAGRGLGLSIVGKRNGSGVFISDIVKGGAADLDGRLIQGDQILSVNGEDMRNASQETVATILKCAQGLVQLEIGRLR

MAST1, Q9Y2H9 = target: MAST1, Q9Y2H9
Chain of MAST1, Q9Y2H9 (Q9Y2H9 962-1065): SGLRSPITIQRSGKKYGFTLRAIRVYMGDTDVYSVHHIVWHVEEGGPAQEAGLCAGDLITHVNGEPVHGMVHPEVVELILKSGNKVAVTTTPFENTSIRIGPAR

HTRA4, P83105 = target: T8, HTRA4, P83105
T8 sequence (P83105 378-476, limits assumed, looked up): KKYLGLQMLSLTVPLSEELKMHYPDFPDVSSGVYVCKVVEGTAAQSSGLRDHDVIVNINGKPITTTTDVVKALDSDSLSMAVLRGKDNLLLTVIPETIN

MAGI2_4, Q86UL8 = target: MAGI2_4, Q86UL8
Chain of MAGI2_4, Q86UL8 (Q86UL8 772-865): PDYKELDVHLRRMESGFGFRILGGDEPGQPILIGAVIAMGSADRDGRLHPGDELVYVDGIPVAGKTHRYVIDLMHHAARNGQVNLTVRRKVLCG

GRIP2_4, Q9C0E4 = target: GRIP2_4, Q9C0E4
Chain of GRIP2_4, Q9C0E4 (Q9C0E4 446-548): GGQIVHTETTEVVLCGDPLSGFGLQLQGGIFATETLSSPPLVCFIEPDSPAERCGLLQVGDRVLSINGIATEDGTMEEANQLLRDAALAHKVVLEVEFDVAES

LNX1_3, Q8TBB1 = target: LNX1_3, Q8TBB1
Chain of LNX1_3, Q8TBB1 (Q8TBB1 500-596): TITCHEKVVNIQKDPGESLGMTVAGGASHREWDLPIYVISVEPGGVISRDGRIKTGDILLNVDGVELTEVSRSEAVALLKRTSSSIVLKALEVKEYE

LNX2_2, Q8N448 = target: T9, LNX2_2, Q8N448
T9 sequence (Q8N448 334-432, limits assumed, looked up): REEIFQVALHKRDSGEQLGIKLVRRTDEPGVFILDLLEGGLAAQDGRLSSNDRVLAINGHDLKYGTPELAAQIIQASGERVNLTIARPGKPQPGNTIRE

Inadl_3, Q8NI35 = target: Inadl_3, Q8NI35
Chain of Inadl_3, Q8NI35 (Q8NI35 359-469): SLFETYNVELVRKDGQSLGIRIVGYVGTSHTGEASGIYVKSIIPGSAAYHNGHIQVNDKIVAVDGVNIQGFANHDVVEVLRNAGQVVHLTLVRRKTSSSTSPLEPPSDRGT

[1] = plain residues with an end cap or a label only (N-terminal biotin on a linker: ahx)
[2] = plain residues with an end cap or a label only (N-terminal biotin on a linker: ttds)

Chain of DLG5_1, Q8TDM6 (Q8TDM6 617-713): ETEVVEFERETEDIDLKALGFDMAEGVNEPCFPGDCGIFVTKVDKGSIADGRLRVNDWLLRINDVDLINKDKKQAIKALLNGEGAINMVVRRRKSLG
Chain of FRMPD3, Q5JV73 (Q5JV73 12-100): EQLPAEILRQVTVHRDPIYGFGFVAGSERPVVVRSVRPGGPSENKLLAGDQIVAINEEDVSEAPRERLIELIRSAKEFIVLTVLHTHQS
Chain of MAGI2_5, Q86UL8 (Q86UL8 915-1017): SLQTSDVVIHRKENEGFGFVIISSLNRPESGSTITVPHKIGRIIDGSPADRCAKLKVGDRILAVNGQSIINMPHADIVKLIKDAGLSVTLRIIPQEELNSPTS
Chain of DLG4_3, P78352 (P78352 306-403): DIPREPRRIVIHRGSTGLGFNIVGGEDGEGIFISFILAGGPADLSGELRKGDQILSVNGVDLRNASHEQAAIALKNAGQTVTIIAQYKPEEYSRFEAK
Chain of NHERF2_2, Q15599 (Q15599 142-238): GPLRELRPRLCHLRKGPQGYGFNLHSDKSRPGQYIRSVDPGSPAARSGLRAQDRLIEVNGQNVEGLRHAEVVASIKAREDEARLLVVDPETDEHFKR

## AKPQPVDSWV [ARVCF, O00192]
DLG4_3, P78352; [1]
  pKd: below the threshold
DLG5_1, Q8TDM6; [1]
  pKd: below the threshold
NHERF2_2, Q15599; [1]
  pKd: below the threshold
MAGI2_5, Q86UL8; [1]
  pKd: below the threshold
FRMPD3, Q5JV73; [1]
  pKd: below the threshold
HTRA3, P83110; [1]
  pKd: 5.51
MAGI2_2, Q86UL8; [1]
  pKd: below the threshold
ARHGEF12, Q9NZN5-2; [1]
  pKd: below the threshold
PDZRN3_1, Q9UPQ7; [1]
  pKd: below the threshold
ARHGEF11, O15085; [1]
  pKd: below the threshold
MAGI2_3, Q86UL8; [1]
  pKd: below the threshold
PTPN13_1, Q12923; [1]
  pKd: below the threshold
SHANK1, Q9Y566; [1]
  pKd: below the threshold
SCRIB_3, Q14160; [1]
  pKd: 3.95
APBA1_2, Q02410; [1]
  pKd: 4.62
MAGI1_1, Q96QZ7; [1]
  pKd: below the threshold
Inadl_4, Q8NI35; [1]
  pKd: below the threshold
APBA2_1, Q99767; [1]
  pKd: below the threshold
AHNAK1, Q09666; [1]
  pKd: below the threshold
NOS1, P29475; [1]
  pKd: 3.85
Inadl_9, Q8NI35; [1]
  pKd: 3.74
MAST1, Q9Y2H9; [1]
  pKd: below the threshold
HTRA4, P83105; [1]
  pKd: below the threshold
MAGI2_4, Q86UL8; [1]
  pKd: 4.12
GRIP2_4, Q9C0E4; [1]
  pKd: below the threshold
LNX1_3, Q8TBB1; [1]
  pKd: below the threshold
LNX2_2, Q8N448; [1]
  pKd: 4.44
Inadl_3, Q8NI35; [1]
  pKd: 3.86

## NPDALPETLV [ARHGAP6, O43182]
DLG4_3, P78352; [2]
  pKd: 3.46
DLG5_1, Q8TDM6; [2]
  pKd: below the threshold
NHERF2_2, Q15599; [2]
  pKd: below the threshold
MAGI2_5, Q86UL8; [2]
  pKd: 4.45
FRMPD3, Q5JV73; [2]
  pKd: below the threshold
HTRA3, P83110; [2]
  pKd: below the threshold
MAGI2_2, Q86UL8; [2]
  pKd: 4.1
ARHGEF12, Q9NZN5-2; [2]
  pKd: 3.85
PDZRN3_1, Q9UPQ7; [2]
  pKd: 4.3
ARHGEF11, O15085; [2]
  pKd: 4.09
MAGI2_3, Q86UL8; [2]
  pKd: 3.89
PTPN13_1, Q12923; [2]
  pKd: below the threshold
SHANK1, Q9Y566; [2]
  pKd: below the threshold
SCRIB_3, Q14160; [2]
  pKd: 3.99
APBA1_2, Q02410; [2]
  pKd: below the threshold
MAGI1_1, Q96QZ7; [2]
  pKd: below the threshold
Inadl_4, Q8NI35; [2]
  pKd: below the threshold
APBA2_1, Q99767; [2]
  pKd: below the threshold
AHNAK1, Q09666; [2]
  pKd: below the threshold
NOS1, P29475; [2]
  pKd: 3.92
Inadl_9, Q8NI35; [2]
  pKd: 3.98
MAST1, Q9Y2H9; [2]
  pKd: 4.38
HTRA4, P83105; [2]
  pKd: below the threshold
MAGI2_4, Q86UL8; [2]
  pKd: 4.42
GRIP2_4, Q9C0E4; [2]
  pKd: below the threshold
LNX1_3, Q8TBB1; [2]
  pKd: below the threshold
LNX2_2, Q8N448; [2]
  pKd: 4.66
Inadl_3, Q8NI35; [2]
  pKd: 4.36

## QRPYRRESEI [KCNJ12, Q14500]
DLG4_3, P78352; [2]
  pKd: 4.31
DLG5_1, Q8TDM6; [2]
  pKd: below the threshold
NHERF2_2, Q15599; [2]
  pKd: below the threshold
MAGI2_5, Q86UL8; [2]
  pKd: below the threshold
FRMPD3, Q5JV73; [2]
  pKd: below the threshold
HTRA3, P83110; [2]
  pKd: below the threshold
MAGI2_2, Q86UL8; [2]
  pKd: 4.21
ARHGEF12, Q9NZN5-2; [2]
  pKd: 3.65
PDZRN3_1, Q9UPQ7; [2]
  pKd: 4.68
ARHGEF11, O15085; [2]
  pKd: below the threshold
MAGI2_3, Q86UL8; [2]
  pKd: below the threshold
PTPN13_1, Q12923; [2]
  pKd: below the threshold
SHANK1, Q9Y566; [2]
  pKd: below the threshold
SCRIB_3, Q14160; [2]
  pKd: 4.76
APBA1_2, Q02410; [2]
  pKd: below the threshold
MAGI1_1, Q96QZ7; [2]
  pKd: below the threshold
Inadl_4, Q8NI35; [2]
  pKd: below the threshold
APBA2_1, Q99767; [2]
  pKd: below the threshold
AHNAK1, Q09666; [2]
  pKd: below the threshold
NOS1, P29475; [2]
  pKd: 3.53
Inadl_9, Q8NI35; [2]
  pKd: below the threshold
MAST1, Q9Y2H9; [2]
  pKd: below the threshold
HTRA4, P83105; [2]
  pKd: below the threshold
MAGI2_4, Q86UL8; [2]
  pKd: below the threshold
GRIP2_4, Q9C0E4; [2]
  pKd: below the threshold
LNX1_3, Q8TBB1; [2]
  pKd: below the threshold
LNX2_2, Q8N448; [2]
  pKd: below the threshold
Inadl_3, Q8NI35; [2]
  pKd: below the threshold

## GRLLGLETNV [ARHGEF26, Q96DR7]
DLG4_3, P78352; [2]
  pKd: 3.8
DLG5_1, Q8TDM6; [2]
  pKd: below the threshold
NHERF2_2, Q15599; [2]
  pKd: below the threshold
MAGI2_5, Q86UL8; [2]
  pKd: below the threshold
FRMPD3, Q5JV73; [2]
  pKd: below the threshold
HTRA3, P83110; [2]
  pKd: below the threshold
MAGI2_2, Q86UL8; [2]
  pKd: 3.72
ARHGEF12, Q9NZN5-2; [2]
  pKd: below the threshold
PDZRN3_1, Q9UPQ7; [2]
  pKd: 3.59
ARHGEF11, O15085; [2]
  pKd: below the threshold
MAGI2_3, Q86UL8; [2]
  pKd: 3.9
PTPN13_1, Q12923; [2]
  pKd: below the threshold
SHANK1, Q9Y566; [2]
  pKd: below the threshold
SCRIB_3, Q14160; [2]
  pKd: 4.67
APBA1_2, Q02410; [2]
  pKd: 4.23
MAGI1_1, Q96QZ7; [2]
  pKd: below the threshold
Inadl_4, Q8NI35; [2]
  pKd: below the threshold
APBA2_1, Q99767; [2]
  pKd: below the threshold
AHNAK1, Q09666; [2]
  pKd: below the threshold
NOS1, P29475; [2]
  pKd: 3.88
Inadl_9, Q8NI35; [2]
  pKd: below the threshold
MAST1, Q9Y2H9; [2]
  pKd: 4.33
HTRA4, P83105; [2]
  pKd: below the threshold
MAGI2_4, Q86UL8; [2]
  pKd: 4.02
GRIP2_4, Q9C0E4; [2]
  pKd: below the threshold
LNX1_3, Q8TBB1; [2]
  pKd: below the threshold
LNX2_2, Q8N448; [2]
  pKd: 4.13
Inadl_3, Q8NI35; [2]
  pKd: 3.58
